Experimental data reported in PMC9071465.

Columns and labels:
[1] = molecular target: At-HIGLE^184-368 (C-terminal region of At-HIGLE) (Arabidopsis thaliana); assay: SEC; Sephacryl 16/60 S-100, 20 mM Tris-HCl (pH 8.5), 5% glycerol, 5 mM beta-mercaptoethanol, 0.5 M NaCl; calibrated with gel filtration markers; oligomeric state from a standard curve
[2] = molecular target: At-HIGLE (HYL-1 Interacting GIY-YIG Like Endonuclease) from Arabidopsis thaliana, full length (Arabidopsis thaliana); assay: SEC; Sephacryl 16/60 S-200, 20 mM Tris-HCl (pH 8.5), 5% glycerol, 5 mM beta-mercaptoethanol, 0.5 M NaCl; calibrated with gel filtration markers; oligomeric state from a standard curve

Substance | stoichiometry N [1] | stoichiometry N [2]
At-HIGLE^184-368 (C-terminal region of At-HIGLE) (domain or fragment) | 2 | –
At-HIGLE (HYL-1 Interacting GIY-YIG Like Endonuclease) from Arabidopsis thaliana, full length (enzyme) | – | 2
